The record followed here is publication PMC6466456.

Like-named read-outs stand apart in the source and are kept apart here.

Data set [1] addresses T1, EGFR, human recombinant, hIgG1-Fc tag (Sino Biological) (Homo sapiens, UniProt P00533 25-645). The data set is described as follows: thermofluorimetric analysis. On the technique in general: In DSF a fluorescence change marks the thermal transition of the protein.
Data set [2] addresses T1, EGFR, human recombinant, hIgG1-Fc tag …. The data set is described as follows: flow cytometry, EGFR-coated microspheres. (In flow cytometry, cells or beads pass a laser one at a time.)
For data set [3] the target is unchanged. Kind of data set: thermofluorimetric analysis. This is another data set of the same source.
Data set [4] shares this target. The data set is described as follows: thermofluorimetric analysis. The source holds these as a separate data set.

B1: KM4 (ssDNA)
DNA: CTTACCTCTTTCTCCCACCGCCCCAAACATAATTGGTATACCGCAACACAACGCACAACACACAACAATCAAT
As for B1, in data set [1], the Kd (in general, the equilibrium constant for the complex coming apart) is about 1 nM.

B2: KM4-FITC (ssDNA)
DNA: B1 DNA
modifications: 5' AmMC6
Consider B2, for which the Kd in data set [2] was 46 nM.

B3: NS-DNA (ssDNA)
DNA: CGACATCTTTAACCTAGCCCTTGTCAGTGCTCTATGACAAGGTGTGTAGACGACATCTAACCTAGC
Turning to B3, the binding result in data set [3] is “no binding”.

B4: LINN2 (ssDNA)
DNA: CCGCTTTATTGTTAATTAAGTTTTATATTTCGCACAACACACAACAATCAATATC
As to B4, in data set [4], the binding result was “binds”.
